B1: human Netrin-G2, AVEXIS protein (ligand, UniProt Q96CW9 18-507, looked up)
chain: DYDICKSWVTTDEGPTWEFYACQPKVMRLKDYVKVKVEPSGITCGDPPERFCSHENPYLCSNECDASNPDLAHPPRLMFDKEEEGLATYWQSITWSRYPSPLEANITLSWNKTVELTDDVVMTFEYGRPTVMVLEKSLDNGRTWQPYQFYAEDCMEAFGMSARRARDMSSSSAHRVLCTEEYSRWAGSKKEKHVRFEVRDRFAIFAGPDLRNMDNLYTRLESAKGLKEFFTLTDLRMRLLRPALGGTYVQRENLYKYFYAISNIEVIGRCKCNLHANLCSMREGSLQCECEHNTTGPDCGKCKKNFRTRSWRAGSYLPLPHGSPNACATAGSFGNCECYGHSNRCSYIDFLNVVTCVSCKHNTRGQHCQHCRLGYYRNGSAELDDENVCIECNCNQIGSVHDRCNETGFCECREGAAGPKCDDCLPTHYWRQGCYPNVCDDDQLLCQNGGTCLQNQRCACPRGYTGVRCEQPRCDPADDDGGLDCDRAPG
notes: not shown: AVEXIS tag (bait or prey)
B2: human Netrin-4, AVEXIS protein (ligand, UniProt Q9HB63 19-628, looked up)
chain: GLSGVAGVSSRCEKACNPRMGNLALGRKLWADTTCGQNATELYCFYSENTDLTCRQPKCDKCNAAYPHLAHLPSAMADSSFRFPRTWWQSAEDVHREKIQLDLEAEFYFTHLIVMFKSPRPAAMVLDRSQDFGKTWKPYKYFATNCSATFGLEDDVVKKGAICTSKYSSPFPCTGGEVIFKALSPPYDTENPYSAKVQEQLKITNLRVQLLKRQSCPCQRNDLNEEPQHFTHYAIYDFIVKGSCFCNGHADQCIPVHGFRPVKAPGTFHMVHGKCMCKHNTAGSHCQHCAPLYNDRPWEAADGKTGAPNECRTCKCNGHADTCHFDVNVWEASGNRSGGVCDDCQHNTEGQYCQRCKPGFYRDLRRPFSAPDACKPCSCHPVGSAVLPANSVTFCDPSNGDCPCKPGVAGRRCDRCMVGYWGFGDYGCRPCDCAGSCDPITGDCISSHTDIDWYHEVPDFRPVHNKSEPAWEWEDAQGFSALLHSGKCECKEQTLGNAKAFCGMKYSYVLKIKILSAHDKGTHVEVNVKIKKVLKSTKLKIFRGKRTLYPESWTDRGCTCPILNPGLEYLVAGHEDIRTGKLIVNMKSFVQHWKPSLGRKVMDILKRECK
notes: as for B1
B3: human Netrin-G1, AVEXIS protein (ligand, UniProt Q9Y2I2 29-510, looked up)
chain: HYDLCKTQIYTEEGKVWDYMACQPESTDMTKYLKVKLDPPDITCGDPPETFCAMGNPYMCNNECDASTPELAHPPELMFDFEGRHPSTFWQSATWKEYPKPLQVNITLSWSKTIELTDNIVITFESGRPDQMILEKSLDYGRTWQPYQYYATDCLDAFHMDPKSVKDLSQHTVLEIICTEEYSTGYTTNSKIIHFEIKDRFAFFAGPRLRNMASLYGQLDTTKKLRDFFTVTDLRIRLLRPAVGEIFVDELHLARYFYAISDIKVRGRCKCNLHATVCVYDNSKLTCECEHNTTGPDCGKCKKNYQGRPWSPGSYLPIPKGTANTCIPSISSIGNCECFGHSNRCSYIDLLNTVICVSCKHNTRGQHCELCRLGYFRNASAQLDDENVCIECYCNPLGSIHDRCNGSGFCECKTGTTGPKCDECLPGNSWHYGCQPNVCDNELLHCQNGGTCHNNVRCLCPAAYTGILCEKLRCEEAGSCGS
notes: as for B1

How the values were obtained:
[1] = molecular target: T1, human DRAXIN 21 amino acid Netrin binding fragment, AVEXIS prey or bait protein (human); experiment: AVEXIS, prey on bait DRAXIN 21aa; white = No binding
T1 construct: Tested in both bait and prey orientations; also called human 21 amino acid DRAXIN fragment; derived 21 amino acid peptide; not shown: AVEXIS tag (rat Cd4d3+4 and prey or bait module)
T1 peptide: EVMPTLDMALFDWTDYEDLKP
Excerpt: (§1) The Matn4-bait served as an internal prey-protein control and was used for normalization of the A486 nm values; conditioned medium (CM) serves as negative control; n=3.

[2] = molecular target: the molecule itself; experiment: AVEXIS, prey on bait NTNG2; white = No binding
Excerpt: as §1

[3] = molecular target: B2; experiment: AVEXIS, prey NTN4 on bait NTNG2
Excerpt: as §1

[4] = molecular target: T2, human Netrin-3, AVEXIS protein (human, UniProt O00634 28-580); experiment: AVEXIS, prey NTN3 on bait NTNG2
T2 construct: not shown: AVEXIS tag (bait or prey)
Excerpt: as §1

[5] = molecular target: T3, biotinylated recombinant human UNC5B (human, UniProt Q8IZJ1 27-377); experiment: AVEXIS, prey on bait UNC5B; white = No binding
T3 construct: Made in HEK293-6E and immobilised on an SA chip
Excerpt: as §1

[6] = molecular target: B2; experiment: AVEXIS, prey on bait NTN4; white = No binding
Excerpt: as §1

[7] = molecular target: T2, human Netrin-3, AVEXIS protein; experiment: AVEXIS, prey on bait NTN3; white = No binding
Excerpt: as §1

[8] = molecular target: T4, Matn4 ECD, mono-biotinylated bait protein (positive control); experiment: AVEXIS, prey on bait Matn4 (+), positive control for the prey; dark = Binding
T4 construct: extracellular domain; also called Matn4-bait
Excerpt: as §1

[9] = molecular target: T5, human Netrin1, recombinant AVEXIS protein (biotinylated when immobilised) (human, UniProt O95631 25-604); experiment: AVEXIS, prey on bait NTN1; white = No binding
T5 construct: also called NTN1
Excerpt: as §1

[10] = molecular target: the molecule itself; experiment: AVEXIS, prey NTNG2 on bait NTNG2
Excerpt: as §1

[11] = molecular target: T5, human Netrin1, recombinant AVEXIS …; experiment: AVEXIS, prey NTN1 on bait NTNG2
Excerpt: as §1

[12] = molecular target: B3; experiment: AVEXIS, prey on bait NTNG1; white = No binding
Excerpt: as §1

[13] = molecular target: T6, human DRAXIN, AVEXIS prey or bait protein (human, UniProt Q8NBI3 26-349); experiment: AVEXIS, prey on bait DRAXIN; white = No binding
T6 sequence: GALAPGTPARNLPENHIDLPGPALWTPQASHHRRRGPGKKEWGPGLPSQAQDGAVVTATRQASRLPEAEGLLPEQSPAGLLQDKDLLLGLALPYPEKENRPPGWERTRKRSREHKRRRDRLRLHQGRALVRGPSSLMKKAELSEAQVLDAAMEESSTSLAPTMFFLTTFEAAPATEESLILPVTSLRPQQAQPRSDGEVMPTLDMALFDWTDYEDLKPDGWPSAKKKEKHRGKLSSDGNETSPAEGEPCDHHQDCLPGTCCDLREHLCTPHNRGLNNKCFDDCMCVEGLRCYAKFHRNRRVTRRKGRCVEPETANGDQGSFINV
Excerpt: as §1

[14] = molecular target: B1; experiment: AVEXIS, prey on bait NTNG2; white = No binding
Excerpt: as §1

[15] = molecular target: the molecule itself; experiment: AVEXIS, prey on bait NTN4; white = No binding
Excerpt: as §1

[16] = molecular target: the molecule itself; experiment: AVEXIS, prey NTN4 on bait NTN4
Excerpt: as §1

[17] = molecular target: T5, human Netrin1, recombinant AVEXIS …; experiment: AVEXIS, prey NTN1 on bait NTN4
Excerpt: as §1

[18] = molecular target: B1; experiment: AVEXIS, prey NTNG1 on bait NTNG2
Excerpt: as §1

[19] = molecular target: T5, human Netrin1, recombinant AVEXIS …; experiment: AVEXIS, prey NTN1 on bait NTNG1
Excerpt: as §1

[20] = molecular target: T2, human Netrin-3, AVEXIS protein; experiment: AVEXIS, prey NTN3 on bait NTNG1
Excerpt: as §1

[21] = molecular target: the molecule itself; experiment: AVEXIS, prey on bait NTNG1; white = No binding
Excerpt: as §1

[22] = molecular target: the molecule itself; experiment: AVEXIS, prey NTNG1 on bait NTNG1
Excerpt: as §1

[23] = molecular target: B2; experiment: AVEXIS, prey NTN4 on bait NTNG1
Excerpt: as §1

T2 sequence (O00634 28-580): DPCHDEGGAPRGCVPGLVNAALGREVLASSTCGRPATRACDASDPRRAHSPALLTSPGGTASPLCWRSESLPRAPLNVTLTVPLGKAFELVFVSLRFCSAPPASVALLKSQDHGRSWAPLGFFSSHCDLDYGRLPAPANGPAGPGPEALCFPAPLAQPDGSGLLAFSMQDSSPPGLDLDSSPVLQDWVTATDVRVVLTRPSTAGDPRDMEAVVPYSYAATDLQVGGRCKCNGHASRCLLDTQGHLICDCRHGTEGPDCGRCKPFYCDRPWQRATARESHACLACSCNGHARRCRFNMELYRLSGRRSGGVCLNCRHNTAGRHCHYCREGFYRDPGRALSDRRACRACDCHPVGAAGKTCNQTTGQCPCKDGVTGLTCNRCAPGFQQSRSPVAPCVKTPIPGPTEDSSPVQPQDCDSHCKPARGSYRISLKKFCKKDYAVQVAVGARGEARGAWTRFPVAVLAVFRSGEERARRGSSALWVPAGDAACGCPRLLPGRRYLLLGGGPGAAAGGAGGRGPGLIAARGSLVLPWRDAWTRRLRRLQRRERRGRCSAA

| Binder | A486nm [1] | A486nm [5] | A486nm [6] | A486nm [7] | A486nm [8] | A486nm [9] | A486nm [12] | A486nm [13] | A486nm [14] | other results |
| --- | --- | --- | --- | --- | --- | --- | --- | --- | --- | --- |
| B1 | 0.063 | 0.061 | 0.063 | 0.062 | 0.201 | 0.06 | 0.061 | 0.06 | – | A486nm [2]: 0.062; binding result [3]: no binding; binding result [4]: no binding; binding result [10]: no binding; binding result [11]: no binding |
| B2 | 0.067 | 0.063 | – | 0.065 | 0.235 | 0.067 | 0.065 | 0.063 | 0.063 | A486nm [15]: 0.068; binding result [16]: no binding; binding result [17]: no binding |
| B3 | 0.063 | 0.061 | 0.066 | 0.064 | 0.254 | 0.062 | – | 0.061 | 0.061 | binding result [18]: no binding; binding result [19]: no binding; binding result [20]: no binding; A486nm [21]: 0.062; binding result [22]: no binding; binding result [23]: no binding |

Reference: US20160347802A1 (MAX PLANCK GESELLSCHAFT ZUR FOERDERUNG DER WISSENSCHAFTEN E …, published 2016)
